Reference: the supplement of paper PMC9233669
Variants at the floor of the assay were thinned out.

How the values were obtained:
biotinyl-Phe-oxazolone = test: self-aminoacylation, catalytic enhancement (BFO) (fold over background); higher = more active; k-Seq, kA / k0A0; sequences stand for … in GGGAAUGGAUCCACAUCUACGAAUUC…UUCACUGCAGACUUGACGAAGCUG
Outline: (§1)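 Each biotinyl-aminoacyl-oxazolone, at 2–1250 μM, was incubated with mutagenized RNA pools (0.43 μM) carrying a 21-nt variable region. The 50 μL reactions contained HEPES/NaCl/KCl/MgCl2/CaCl2 buffer with 5% acetonitrile at pH 6.9–7.0 and ran for 90 minutes at room temperature. After streptavidin capture, RNA was measured by qPCR in triplicate and by Illumina sequencing, and catalytic enhancement was calculated as median kA over the uncatalyzed rate from a pseudo-first-order fit of per-sequence fraction reacted.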

biotinyl-Trp-oxazolone = test: self-aminoacylation, catalytic enhancement (BWO) (fold over background); higher = more active; k-Seq, kA / k0A0; sequences stand for … in GGGAAUGGAUCCACAUCUACGAAUUC…UUCACUGCAGACUUGACGAAGCUG
Outline: as §1

| Sequence | self-aminoacylation (biotinyl-Phe-oxazolone) | self-aminoacylation (biotinyl-Trp-oxazolone) |
| --- | --- | --- |
| AAAUUUGCUAAUAGUCGUAAG [Fam3.1 aminoacylation ribozyme variant] | 10.3 | 4.02 |
| AAGUAUGCUAAUAGUCACAAG [Fam3.1 aminoacylation ribozyme variant] | 9.66 | 3.36 |
| AAGUGUGCUAAUAGUCACAAG [Fam3.1 aminoacylation ribozyme variant] | 6.87 | 3.91 |
| AAGUUUACUAAUUGUCGCAAG [Fam3.1 aminoacylation ribozyme variant] | 2.6 | 2 |
| AAGUUUGCAAAUAGUCGCCAG [Fam3.1 aminoacylation ribozyme variant] | 2.38 | 2.05 |
| AAGUUUGCUAACAGUCGUAAG [Fam3.1 aminoacylation ribozyme variant] | 27.2 | 7.81 |
| AAGUUUGCUAUUAGUCGCGAG [Fam3.1 aminoacylation ribozyme variant] | 4.31 | 2.3 |
| AAGUUUUCUAAAAGUCGCAAG [Fam3.1 aminoacylation ribozyme variant] | 2.92 | 2.01 |
| AAUACCCUGGUCAUCGAGUGC [Fam2.1 aminoacylation ribozyme variant] | 3.36 | 2.03 |
| AAUUUUGCUAAUAGUCGCAAG [Fam3.1 aminoacylation ribozyme variant] | 5 | 2.43 |
| ACACACUUCAAGGAAUCGGUC [Fam1B.1 aminoacylation ribozyme variant] | 3.08 | 2.96 |
| ACACAGUUCAAGCAAUCGGUC [Fam1B.1 aminoacylation ribozyme variant] | 3.76 | 3.46 |
| ACGCACUUCAAGCAAUCGGUC [Fam1B.1 aminoacylation ribozyme variant] | 33.8 | 19.9 |
| AGGUUUGCUAAUAGUCACAAG [Fam3.1 aminoacylation ribozyme variant] | 9.69 | 2.76 |
| AGGUUUGCUCAUAGUCGCAAG [Fam3.1 aminoacylation ribozyme variant] | 2.95 | 2.45 |
| AUACUUCAAACAAUCGGUCUU [Fam1A.1 aminoacylation ribozyme variant] | 6.84 | 4.01 |
| AUACUUCAACCAAUCGGUCUG [Fam1A.1 aminoacylation ribozyme variant] | 5.09 | 4.18 |
| AUAGUUCAAACAAUCGGUCUG [Fam1A.1 aminoacylation ribozyme variant] | 4.05 | 3.06 |
| AUUACCCUGGCCAUCGAGUAA [Fam2.1 aminoacylation ribozyme variant] | 3.72 | 2.74 |
| AUUACGCUGCUCAUCGAGUGA [Fam2.1 aminoacylation ribozyme variant] |  | 2.69 |
| AUUAGCCUGGUCGUCGAGUGA [Fam2.1 aminoacylation ribozyme variant] | 7.67 | 2.09 |
| CAACUUCAAACAAUCGCUCUG [Fam1A.1 aminoacylation ribozyme variant] | 3.06 | 2.41 |
| CAACUUCAAACAAUCGGUCUA [Fam1A.1 aminoacylation ribozyme variant] | 26.4 | 13.9 |
| CAGUUUGCUAAUAGUCGUAAG [Fam3.1 aminoacylation ribozyme variant] | 5.91 | 2.28 |

| Sequence | self-aminoacylation (biotinyl-Phe-oxazolone) | self-aminoacylation (biotinyl-Trp-oxazolone) |
| --- | --- | --- |
| CCAAACUUCAAGCAAUCAGUC [Fam1B.1 aminoacylation ribozyme variant] | 9.55 | 3.03 |
| CCACACGUCAAGCAAUCGGCC [Fam1B.1 aminoacylation ribozyme variant] | 3.91 | 2 |
| CCACACUCCAGGCAAUCGGUC [Fam1B.1 aminoacylation ribozyme variant] |  | 2.04 |
| CCACACUUCAAACGAUCGGUC [Fam1B.1 aminoacylation ribozyme variant] | 3.66 | 4.08 |
| CCACACUUCAAGAAAUCGGUC [Fam1B.1 aminoacylation ribozyme variant] | 10.8 | 6.66 |
| CCACACUUCAAGAAAUCGGUU [Fam1B.1 aminoacylation ribozyme variant] |  | 2.03 |
| CCACACUUCAAGCAAUCAGUC [Fam1B.1 aminoacylation ribozyme variant] | 21.5 | 6.45 |
| CCACACUUCAAGUAAUCGGCC [Fam1B.1 aminoacylation ribozyme variant] | 3.03 | 4.17 |
| CCACACUUCAAUAAAUCGGUC [Fam1B.1 aminoacylation ribozyme variant] | 11.7 | 6.22 |
| CCACAUUUCAACCAAUCGGUC [Fam1B.1 aminoacylation ribozyme variant] | 7.78 | 5.58 |
| CCACUCUUCAAUCAAUCGGUC [Fam1B.1 aminoacylation ribozyme variant] | 33.5 | 20.3 |
| CCACUUCAAACAAUCGCUCUG [Fam1A.1 aminoacylation ribozyme variant] | 3.32 | 2.69 |
| CCCCACUUCAUGCAAUCGGUC [Fam1B.1 aminoacylation ribozyme variant] | 2.57 | 2.78 |
| CGACACUUCAAGCAAUCGGUC [Fam1B.1 aminoacylation ribozyme variant] | 13.4 | 7.38 |
| CGACUUCAAAAAAUCGGUCUG [Fam1A.1 aminoacylation ribozyme variant] | 15.3 | 14 |
| CUACCCUUCAAGCAAUCGGUC [Fam1B.1 aminoacylation ribozyme variant] | 8.35 | 5.52 |
| CUACCUCAAACAAUCGGUCUG [Fam1A.1 aminoacylation ribozyme variant] | 3.14 | 2.19 |
| CUACGUGAAACAAUCGGUCUG [Fam1A.1 aminoacylation ribozyme variant] | 5.84 | 2.03 |
| CUACUUCAAAAAAUCGGUCGG [Fam1A.1 aminoacylation ribozyme variant] | 4.54 | 5.6 |
| CUACUUCAAAAAAUCGGUCUC [Fam1A.1 aminoacylation ribozyme variant] | 8.87 | 5.93 |
| CUACUUCAAACAAUCAGACUG [Fam1A.1 aminoacylation ribozyme variant] | 8.24 | 2.98 |
| CUACUUCAAACAAUCGGAAUG [Fam1A.1 aminoacylation ribozyme variant] | 7.74 | 4.46 |
| CUACUUCAAAGAAUCGGUCUC [Fam1A.1 aminoacylation ribozyme variant] | 4.32 | 3.26 |
| GUACGUCAAACAAUCGGUCUG [Fam1A.1 aminoacylation ribozyme variant] |  | 2.71 |
